# In patent publication US8338155B2, “Modified mevalonate kinase with reduced feedback inhibition” (DSM IP Assets B.V., priority 2004, dated 2012):
# B1: N66K, I152M: Saccharomyces cerevisiae mevalonate kinase mutant with substitutions N66K and I152M (encoding DNA SEQ ID NO:5) (protein, listed as Saccharomyces cerevisiae)
# chain: MSLPFLTSAPGKVIIFGEHSAVYNKPAVAASVSALRTYLLISESSAPDTIELDFPDISFNHKWSIKDFNAITEDQVNSQKLAKAQQATDGLSQELVSLLDPLLAQLSESFHYHAAFCFLYMFVCLCPHAKNIKFSLKSTLPIGAGLGSSASMSVSLALAMAYLGGLIGSNDLEKLSENDKHIVNQWAFIGEKCIHGTPSGIDNAVATYGNALLFEKDSHNGTINTNNFKFLDDFPAIPMILTYTRIPRSTKDLVARVRVLVTEKFPEVMKPILDAMGECALQGLEIMTKLSKCKGTDDEAVETNNELYEQLLELIRINHGLLVSIGVSHPGLELIKNLSDDLRIGSTKLTGAGGGGCSLTLLRRDITQEQIDSFKKKLQDDFSYETFETDLGGTGCCLLSAKNLNKDLKIKSLVFQLFENKTTTKQQIDDLLLPGNTNLPWTS
# How the values were obtained:
# [1] = test system: Paracoccus zeaxanthinifaciens strain R114; experiment: Coenzyme Q10 production in fed-batch cultivation of recombinant strains; format: cell-based; details: 70 h, strain R114 with plasmid pBBR-K-mev-op-(S. cerevisiae mvk-N66K/I152M)-PcrtE-ddsAwt vs pBBR-K-mev-op-(S. cerevisiae mvk)-PcrtE-ddsAwt
# Description: To test the in vivo effect of mutation N66K/I152M on the production of coenzyme Q10, the DNA encoding S. cerevisiae mevalonate kinase mutant N66K/1152M (SEQ ID NO:5) is introduced into Paracoccus zeaxanthinifaciens and compared to the CoQ10 production in P. zeaxanthinifaciens carrying the DNA encoding the wild-type S. cerevisiae mevalonate kinase (SEQ ID NO:2).
# Plasmids according to pBBR-K-mev-op-R114-PcrtE-ddsAwt, are constructed wherein the mevalonate operon, including its promoter region, from P. zeaxanthinifaciens R114 (see above) is replaced by either the DNA encoding the wild-type S. cerevisiae mevalonate kinase (SEQ ID NO:2) resulting in pBBR-K-mev-op-(S. cerevisiae mvk)-PcrtE-ddsAwt or the DNA encoding S. cerevisiae mevalonate kinase mutant N66K/1152M (SEQ ID NO:5) resulting in pBBR-K-mev-op-(S. cerevisiae mvk-N66K/I152M)-PcrtE-ddsAwt. […]
# Coenzyme Q10 production is tested in fed-batch cultivations of P. zeaxanthinifaciens strains R114/pBBR-K-mev-opR114-PcrtE-ddsAwt, R114/pBBR-K-mev-op-(S. cerevisiae mvk)-PcrtE-ddsAwt and R114/pBBR-K-mev-op-(S. cerevisiae mvk-N66K/1152M)-PcrtE-ddsAwt. […] The precultures are incubated at 28° C. with shaking at 250 rpm for 28 h, after which time the optical density at 660 nm (OD660) is between 14 and 22 absorbance units, depending on the strain used. […]
# [2] = test system: Saccharomyces cerevisiae mevalonate kinase; experiment: Mevalonate kinase activity assay (NADH consumption, photometric at 340 nm): specific activity; format: biochemical; details: purified His6-tagged enzyme; WT = non-mutated His6-tagged mevalonate kinase
# Description: Methods for measuring specific activity are known to the person skilled in the art. The specific activity may for instance be determined via measuring the consumption of NADH. Suitable conditions for such measurement may be those as e.g. outlined in Example 1 except that, typically, saturating substrate concentrations are used or, in the case of enzyme inhibition at high substrate concentrations, at substrate concentrations that provide maximal activity under the particular experimental conditions.
# (§1) For preparing mevalonate as substrate, 130 mg of DL-mevalonate lactone (FLUKA Chemie AG, Buchs, Switzerland) were dissolved in 5.5 ml of 0.2 M KOH and incubated for 15 min at 50° C. The solution was then adjusted to pH 7.0 by addition of 0.1 M HCl at room temperature (RT). Except if stated otherwise, the assay mixture consisted of 100 mM K2BPO/KH2PO4 (pH 7.0), 1 mM ATP, 2 mM MgCl2, 1 mM mevalonate, 0.5 mM phosphoenolpyruvate (PEP), 0.32 mM NADH, 20 U/ml pyruvate kinase and 27 U/ml lactate dehydrogenase (Sigma-Aldrich, St. Louis, Mo., USA). Inhibition was tested by adding 1 μM FPP.
# (§2) Purification of His6-tagged mevalonate kinase and of His6-tagged mevalonate kinase mutant enzymes was done with Ni-NTA chromatography using the QIAexpress system/reagents of Qiagen. Upon addition of purified (His6-tagged) mevalonate kinase, enzymatic reaction reflected by consumption of NADH was followed by photometric measurement at 340 nm. One unit (1 U) of mevalonate kinase activity catalyzes the phosphorylation of 1 μmol of mevalonate per min.
# (§3) Preparation of Mevalonate and Activity Measurement was Exactly Performed as Described in Example 1. 1 μM FPP was used for inhibition assays performed with the Saccharomyces cerevisiae mevalonate kinase wild-type enzyme and its mutants.
# [3] = test system: Saccharomyces cerevisiae mevalonate kinase; experiment: Inhibition of mevalonate kinase activity by the feedback inhibitor FPP: feedback resistance; format: biochemical; details: 1 μM FPP; % resistance=100·((d/c)−(b/a))/(1−(b/a)) relative to wild-type
# Protocol: “Feedback resistance” as used herein may be any increase in resistance to “feedback inhibition” (as defined above). Feedback resistance can be analyzed in different ways known to those skilled in the art. An appropriate example of such an analysis is shortly described herein: mevalonate kinase activity is measured in an activity assay at non-saturating concentrations of for instance ATP (or of another phosphate donor) and mevalonate (or mevalonate analogue), i.e., at for instance ATP (or phosphate donor) and mevalonate (or mevalonate analogue) concentrations around which the reaction rate is sensitive to changes of these substrate concentrations, e.g., at concentrations around the respective Km values of the enzyme under investigation for these substrates. The activities of both wild-type mevalonate kinase and of a variant/mutant of this enzyme are measured under otherwise identical conditions both in the absence and presence of a relevant concentration of a feedback inhibitor, i.e., at a concentration of feedback inhibitor affording significant inhibition of the wild-type mevalonate kinase. If the extent of inhibition (e.g., % inhibition) by the feedback inhibitor is lower for the mutant than for the wild-type enzyme, then the mutant is feedback resistant in the context of the present patent application. Once a feedback resistant variant/mutant has been identified, the same procedure as described above may be applied to identify further improved mutants, i.e., mutants that are even more feedback resistant. Feedback resistance (%) is calculated as follows: if (a) and (b) are the measured mevalonate kinase activities of the wild-type enzyme in the absence and presence, respectively, of the feedback inhibitor (e.g., FPP), and if (c) and (d) are the measured mevalonate kinase activities of the mutant enzyme in the absence and presence, respectively, of the same feedback inhibitor, then % feedback resistance is: % resistance=100·((d/c)−(b/a))/(1−(b/a))
# as §1, §2, §3
# Feedback resistance (%) was calculated according to the following formula: % resistance=100·((d/c)−(b/a))/(1−(b/a)) wherein (a) and (b) refer to the measured mevalonate kinase activities of the wild-type enzyme in the absence and presence, respectively, and (c) and (d) refer to the measured mevalonate kinase activities of the mutant enzyme in the absence and presence, respectively, of FPP. The results are shown in Tab. 1, wherein WT represents the non-mutated mevalonate kinase containing a His6-tag (SEQ ID NO:3).
molecule,measurement,setting,value
B1,"final concentration of coenzyme Q10 produced, higher than strain carrying wild-type S. cerevisiae mvk",[1],at least 5%
same,Specific activity (% of wild-type),[2],148 % of wild-type
same,Feedback resistance (%),[3],67%
